Test results published in patent EP4640235A1 (Toray Industries, Inc., dated 2025).
Positions count from the first letter of the chain named. Values belong to the binder of their own block, whether it stands above or below them.

Target: T1, human CAPRIN-1 protein expressed on cell membrane surfaces of human cancer cells (human, UniProt Q14444 2-709)
T1 construct: whole, on cells; Endogenous protein on human cancer cells; Flow cytometry was done without permeation of the cell membranes
T1 sequence (looked up): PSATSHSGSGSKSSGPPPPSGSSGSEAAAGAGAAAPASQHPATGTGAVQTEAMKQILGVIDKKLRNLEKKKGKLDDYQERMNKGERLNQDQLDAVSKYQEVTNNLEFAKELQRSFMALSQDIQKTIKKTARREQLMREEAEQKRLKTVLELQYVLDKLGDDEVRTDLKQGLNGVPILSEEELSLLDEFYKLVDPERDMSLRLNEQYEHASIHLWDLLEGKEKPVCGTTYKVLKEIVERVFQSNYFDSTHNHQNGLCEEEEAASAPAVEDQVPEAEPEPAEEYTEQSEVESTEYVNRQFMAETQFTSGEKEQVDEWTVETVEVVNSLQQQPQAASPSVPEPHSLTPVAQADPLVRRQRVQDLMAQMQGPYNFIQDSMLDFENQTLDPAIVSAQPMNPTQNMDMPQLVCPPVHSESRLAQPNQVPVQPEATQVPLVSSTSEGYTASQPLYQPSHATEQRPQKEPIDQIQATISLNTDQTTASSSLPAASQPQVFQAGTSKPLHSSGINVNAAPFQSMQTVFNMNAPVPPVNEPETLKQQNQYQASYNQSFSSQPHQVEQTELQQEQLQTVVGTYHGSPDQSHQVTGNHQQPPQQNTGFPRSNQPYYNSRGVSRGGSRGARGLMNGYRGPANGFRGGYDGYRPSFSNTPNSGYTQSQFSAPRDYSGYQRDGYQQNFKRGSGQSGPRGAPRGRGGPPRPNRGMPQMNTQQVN
Assay: flow cytometry on cancer cells

B3: anti-CAPRIN-1 antibody (o) (antibody, V domains shown)
VH: EVQLHQFGAELVKPGASVKISCKASGYTFTDYNMDWVKQSHGKSLEWIGDINPNYDSTSYNQKFKGKATLTVDKSSSTAYMELRSLTSEDTAVYYCARSRSYDYEGFAYWGQGTLVTVSA
VL: DIQMTQSPASLSASVGETVTITCRASGNIHNYLAWYQQKQGKSPQLLVYNAKTLADGVPSRFSGSGSGTQYSLKINSLQPEDFGSYYCQHFWSTLTFGAGTKLELKR
- binding result: binds

B4: anti-CAPRIN-1 antibody (a) (antibody, V domains shown)
VH: AVTLDESGGGLQMSRGGLSLVCKASGFDFSSYQMNWIRQAPGKGLEFVAAINKFGNSTGHGAAVKGRVTISRDNGQSTVRLQLNNLRAEDTAIYFCTKHAYGYCGSGTWCAAGEIDAWGHGTEVIVSS
VL: QAASTQPSSVSANPGETVEITCSGGGSYSYGWFQQKSPGSAPVTVIYYNNKRPSDIPSRFSGSKSGSTGTLTITGVQADDEAVYYCGSGDSTDTAVFGAGTTLTVLG
- binding result: binds

B6: anti-CAPRIN-1 antibody (af) (antibody, V domains shown)
VH: EVQLVESGGGLVQPGGSLRLSCAASGFSLSSHSLGWVRQAPGKGLEWIGDIRSGGSAYYANWAKGRFTISRDNSKNTLYLQMNSLRAEDTAVYYCTRTNGPSDLTNRLDLWGQGTLVTVSS
VL: QVLTQSPSSLSASVGDRVTINCQASQSLYNNENLAWFQQKPGKVPKRLIYGASTLASGVSSRFSGSGSGTEFTLTISSLQCEDFAIYYCLGEFSCGSADCFAFGGGTKVEIK
- binding result: binds

B7: anti-CAPRIN-1 antibody (ah) (antibody, V domains shown)
VH: B6 VH
VL: EQVLTQSPSSLSASVGDRVTINCQASQSLYNNENLAWFQQKPGKVPKRLIYGASTLASGVSSRFSGSGSGTEFTLTISNLQPEDFAIYYCLGEFSCGSADCFAFGGGTKVEIK
- binding result: binds

B8: anti-CAPRIN-1 antibody (ai) (antibody, V domains shown)
VH: B6 VH with Y94F
VL: B7 VL with Q2I, I87T
- binding result: binds

B9: anti-CAPRIN-1 antibody (ag) (antibody, V domains shown)
VH: B6 VH with Y94F
VL: B6 VL
- binding result: binds

B13: anti-CAPRIN-1 antibody (z) (antibody, V domains shown)
VH: GPDLVKPGASVKISCKASGYSFTAYYMHWVKQSHGKSLEWIGRVNPNNGGTTYNQKFKGKAILTVDKSSSTAYMELRSLTFEDSAVYYCARRIYYGYFDYWGQGTTVTVSS
VL: AFFAVSLGQRATISCKASQSVDYDGDSYMNWYQQKPGQPPKLLIYVASNLESGVPARFSGSGSGTDFTLNIHPVEEEDAATYYCQQSNEDPYTFGGGTKLEIKQ
- binding result: binds

Now from value to binder:

- binding result: binds
B1: anti-CAPRIN-1 antibody (c) (antibody, V domains shown)
VH: AVTLDESGGGLQTPGGGLSLVCKASGFTFSSFDMGWVRQAPGKGLEFVAQINDAGSRTWYATAVKGRATISRDNGQTTVRLQLNNLRAEDTGTYYCTRGSGYVGAGAIDAWGHGTEVIVS
VL: AALTQPSSVSANPGETVKITCSGGSGYYGWYQQQKSPGSAPVTVIYQNDKRPSDIPSRFSGSGSGSTNTLTITGVQAEDEAVYFCGRYDSTDSGIFGAGTTLTVL

- binding result: binds
B2: anti-CAPRIN-1 antibody (d) (antibody, V domains shown)
VH: QSLEESGGDLVKPGASLTLTCTASGFSFSGSYYMSWVRQAPGKGLEWIAYIYIGDGVTAYANWAKGRFTISKASSTTVTLQMTSLTAADTATYFCARGNKLWGPGTLVTVSS
VL: DVVMTQTPASVEAAVGGTVTIKCQASQSISSYLAWYQQKPGQPPKRLIYDASNLDSGVPSRFKGSGSGTDFTITISDLECADAATYYCQCTAVSSATIYGNAFGGGTEVVVK

- binding result: binds
B5: anti-CAPRIN-1 antibody (i) (antibody, V domains shown)
VH: GAELVRSGASVKMSCKASGYSFTDYNMYWVKQTPGQGLEWIGYIYPGNGGTNYNQKFKGKATLTADTSSSTAYMQISSLTSEDSAVYFCARDYDDGGYAMDYWGQGTTVTVSS
VL: DIQMTQSPASLSASVGETVTITCRASGNIHNYLTWYQQKQGKSPQLLVYNAKTLADGVPSRFSGSGSGTQYSLKINRLQPEDFGSYYCQHFWNIPWTFGGGTKLNSR

- binding result: binds
B10: anti-CAPRIN-1 antibody (ak) (antibody, V domains shown)
VH: B6 VH with Y94F
VL: B7 VL

- binding result: binds
B11: anti-CAPRIN-1 antibody (aj) (antibody, V domains shown)
VH: B6 VH
VL: B7 VL with Q2I, I87T

- binding result: binds
B12: anti-CAPRIN-1 antibody (b) (antibody, V domains shown)
VH: B6 VH with V2Q, Q3S
VL: B6 VL

- binding result: binds
B14: anti-CAPRIN-1 antibody (j) (antibody, V domains shown)
VH: DAELVKPGASVKISCKASGYTFTDHSIHWVQQKPEQGLEWIGYISPGNGNIKYNEKFKGKATLTADKSSSTAYMQLNSLTSEDSAVYFCKRSLGRGGPYYFDYWGQGTTVTVSS
VL: DIVLTQAAPSLPVTPGESVSISCRSSKSLLHSNGNTYLYWFLQRPGQSPQLLIYRMSNLASGVPDRFSGSGSGTAFTLRISRVEAEDVGVYYCMQHREYPVTFGSGPN

- binding result: binds
B15: anti-CAPRIN-1 antibody (e) (antibody, V domains shown)
VH: AVTLDESGGGLQTPGGALSLVCKASGFTFSGYDMLWVRQAPGKGLEWVAGIGSTGGGTDYGAAVKGRATISRDNGQSTVRLQLNNLRAEDTATYYCAKVAGGCNSGYCRDSPGSIDAWGHGTEVIVS
VL: AVTQQPASVSANPGETVKITCSGGGSRNYYGWYQQKSPGSVPVTVIYYDDQRPSNIPSRFSGALSGSTSTLTITGVQADDEAVYFCGSADSNTYEGSFGAGTTLTVL
